Results published in patent US20230295310A1 (ABCELLERA BIOLOGICS, published 2023).

Legend:
[1] = target: T1, human CD3e/g (human, UniProt P07766 23-126; P09693 23-116); experiment: SPR (Carterra LSA), mAb on chip
T1 construct: Bought soluble protein; also called hCD3e/g; human CD3e/g (Acro CDD-C52W4)
Procedure, shortened: (§1)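 Purified mAbs amine-coupled (EDC/S-NHS) at 10 μg/mL in 10 mM NaOAc pH 4.25 onto an HC-30M chip, with benchmark and negative-control mAbs; analyte flowed over the array. Double-referenced sensorgrams fitted globally to a 1:1 Langmuir model for ka, kd and KD.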

[2] = target: T2, human CD3e/d (human, UniProt P07766 23-126; P04234 22-105); experiment: SPR (Carterra LSA), mAb on chip
T2 construct: Bought soluble protein; also called hCD3e/d; human CD3/ed (Sino CT038-H2508H)
T2 sequence (P07766 23-126, chain 1 of 2): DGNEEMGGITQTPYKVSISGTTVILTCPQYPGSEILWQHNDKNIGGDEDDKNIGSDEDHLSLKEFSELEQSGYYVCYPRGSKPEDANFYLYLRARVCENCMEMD
T2 sequence (P04234 22-105, chain 2 of 2): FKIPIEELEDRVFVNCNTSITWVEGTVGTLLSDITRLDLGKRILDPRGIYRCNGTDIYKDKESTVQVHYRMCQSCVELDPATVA
Procedure, shortened: as §1

T1 sequence (P07766 23-126, chain 1 of 2): as the sequence (P07766 23-126, chain 1 of 2) above
T1 sequence (P09693 23-116, chain 2 of 2): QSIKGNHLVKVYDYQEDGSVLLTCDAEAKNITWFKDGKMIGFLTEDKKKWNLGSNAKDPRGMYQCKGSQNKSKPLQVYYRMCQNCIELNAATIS

B1: mAb 81 (antibody, V domains shown)
VH: QVQLAESGGGVVQPGRSLRLSCAASGFTFSGYGMHWVRQAPGKGLDWVAIIYYDGKNKYYADSVKGRFTISRDNSKNTLYLQMNSLRAEDTAVYYCARGGGYNWFDPWGQGTLVTVSS
VL: DIQMTQSPSSLSASVGDRVTITCRPSQTISNYLNWYQQDPGKAPKLLIYAASSLQSGVPSRFSGSGSGTDFTLTISSLQPEDFATYYCQQSYSTPITFGRGTRLEIK
notes: VH and VL only
[1]
  Kd: 69.6 nM
[2]
  Kd: 101 nM

B2: mAb 83 (antibody, V domains shown)
VH: QVQLVESGGGVVQPGRSLRLSCAASGFTFSGYGMHWVRQAPGKGLDWVAIIYYNGNNKYYADSVKGRFTISRDNSKNTLYLQMNSLRAEDTAVYYCARGGGYNWFDPWGQGTLVIVSS
VL: DIQMTQSPSSLSASVGDRVTITCRPSQIIINYLNWYQQKPGKAPKLLIYAASSLQSGVPSRFSGSGSGTDFTLTISSLQPEDFATYYCQQSYSTPFTFGRGTRLEIK
notes: VH and VL only
[1]
  Kd: 53.4 nM
[2]
  Kd: 86.5 nM

B3: mAb 86 (antibody, V domains shown)
VH: QVQLAESGGGVVQPGRSLRLSCEASGFTFSGYGMHWVRQAPGKGLDWVAIIYYDGKNKYYADSVKGRFTISRDNSKNTLYLQMNSLRAEDTAVYYCARGGGYNWFDPWGQGTLVTVSS
VL: DIQMTQSPSSLSASVGDRVTITCRPSQTISKYLNWYQQKPGKAPKLLIYAASSLQSGVPSRFSGSGSGTDFTLTISSLQPEDFATYYCQQSYITPITFGRGTRLEIK
notes: VH and VL only
[1]
  Kd: 91.9 nM
[2]
  Kd: 82.1 nM

B4: mAb 212 (antibody, V domains shown)
VH: EVQLLESGGGLVQPGGSLRLSCAASGFTFSNYAMNWVRQAPGKGLEWVSAISGSRSNTYYADSVKGRFTISRDNSKNTLYLQMNSLRAEDTGVYYCAKGAYSKYPYYYYMDVWGKGTTVTVSS
VL: EIVMTQSPATLSLSPGERATLSCRASQSVSSSYLSWYQQKPGQAPRLLIYGASTRAIGIPARFSGSGSGTDFTLTISSLQAEDFAVYYCQQDDNLPWTFGQGTKVEIK
notes: VH and VL only
[1]
  Kd: 22 nM
[2]
  Kd: 11 nM

B5: mAb 214 (antibody, V domains shown)
VH: EVQLLESGGGLVQPGGSLRLSCAASGFTFSNYAMNWVRQAPGKGLEWVSAISGSRSNTYYADSVKGRFTISRDNSKNTLYLQMNSLRAEDTAVYYCAKGAYSKYPYYYYMDVWGKGTTVTVSS
VL: EIVMTQSPATLSLSPGERATLSCRASQSVSSSYLSWYQQKPGQAPRLLIYGASTRAIGIPARFSGSGSGTDFTLTISSLQAEDFAVYYCQQDDNLPWTFGQGTKVEIK
notes: VH and VL only
[1]
  Kd: 25 nM
[2]
  Kd: 13 nM

B6: mAb 213 (antibody, V domains shown)
VH: QEQLVESGGGVVQPGGSLRLSCAASGFTFSGYGMHWVRQAPGKGLEWVAIIWYNGRKTYYAESVKGRFTISRDNSKNTLSLQMNSLRVEDTAVYYCTTGKGYNWFDPWGQGTLVTVSS
VL: EIVMTQSPATLSVSPGERATLSCRASQSVSSNLAWYQQKPGQAPRLLIYGASTRATGIPARFSGSGSGTEFTLTISSLQSEDFAVYYCQQFNAWPLTFGGGTKMEIK
notes: VH and VL only
[1]
  Kd: 8.6 nM
[2]
  Kd: 13 nM

B7: mAb 85 (antibody, V domains shown)
VH: QVQLVQSGAEVKKPGASVKVSCKASGYTVTGYYMHWVRQAPGQGLEWMGWINPNSGGTNFAQNFQGRVTMTRDTSISTFYMDLNRLRSDDTAVYYCARGGAPVSYWFFDLWGRGTLVTVSS
VL: DIQMTQSPSSLSASVGDRVTITCRASQSISRYLNWYQQKPGKAPKVLIYNTSSLKSGVPSRFSGSGSGTDFTLTISSLQPEDFGTFYCQQSHSTPFTFGPGTKVDIK
notes: VH and VL only
[1]
  Kd: 102 nM
[2]
  Kd: 117 nM

B8: mAb 66 (antibody, V domains shown)
VH: QVQLVQSGAEVKKPGASVKVSCKASGYTVTGYYMHWVRQAPGQGLEWMGWINPNSGGTNFAQNFQGRVTMTRDTSISTFYMDLSRLRSDDTAVYYCARGGAPVSYWFFDLWGRGTLVTVSS
VL: DIQMTQSPSSLSASVGDRVTITCRASQSISRYLNWYQQKPGKAPKVLIYNTSSLKSGVPSRFSGSGSGTDFTLTISSLQPEDFATLYCQQSHSTPFTFGPGTKVDIK
notes: VH and VL only
[1]
  Kd: 125 nM
[2]
  Kd: 149 nM

B9: mAb 79 (antibody, V domains shown)
VH: QVQLVQSGAEVKKPGASVKVSCKASGYIVTGYYMHWVRQAPGHGLEWMGWINPNSGGTNFAQNFQGRVTMTRDTSISTFYMDLNRLTSDDTAVYYCARGGAPVSYWFFDLWGRGTLVTVSS
VL: DIQMTQSPSSLSASVGDRVTITCRASQNINSYLNWYHQKPGKAPKVLIYNTSTLKSGVPSRFSGSGSGTYFTLTISSLQPEDFATFYCQQSHSTPFTFGPGTKVDIK
notes: VH and VL only
[1]
  Kd: 74.8 nM
[2]
  Kd: 124 nM

B10: mAb 219 (antibody, V domains shown)
VH: QEQLVESGGGVVQPGGSLRLSCAASGFMFSGYGMHWVRQAPGKGLEWVAIIWYNGRKTYYTESVKGRFTISRDNSKNTLSLQMNSLRVEDTAVYYCTAGQGYNWFDPWGQGTLVTVSS
VL: EIVMTQSPATLSVSPGERATLSCRASQSVSSNLAWYQQKPGQAPRLLIYGASTRATGIPARFSGSGSGTEFTLTISSLQSEDFAVYYCQQFNAWPLTFGGGTKMEIK
notes: VH and VL only
[1]
  Kd: 6.3 nM
[2]
  Kd: 10 nM

B11: mAb 220 (antibody, V domains shown)
VH: QEQLVESGGGVVQPGGSLRLSCVASGFTFSGYGMHWVRQAPGKGLEWVAIIWYNGRKTYYAESVKGRFTISRDNSKNTLSLQMNSLRVEDTAVYYCTTGKGYNWFDPWGQGTLVTVSS
VL: EIVMTQSPATLSVSPGERATLSCRASQSVSSNLAWYQQKPGQAPRLLIYGASTRATGIPARFSGSGSGTEFTLTISSLQSEDFAVYYCQQFNAWPLTFGGGTKMEIK
notes: VH and VL only
[1]
  Kd: 11 nM
[2]
  Kd: 16 nM

B12: mAb 225 (antibody, V domains shown)
VH: QEQLVESGGGVVQPGGSLRLSCAASGFKFSGYGMHWVRQAPGKGLEWVAIIWYNGRKTYYAESVKGRFTISRDNSKNTLSLQMNRLRVEDTAVYYCTAGQGYNWFDPWGQGTLVTVSS
VL: EIVMTQSPATLSVSPGERATLSCRASQSVSSNLAWYQQKPGQAPRLLIYGASTRATGIPARFSGSGSGTEFTLTISSLQSEDFAVYYCQQFNAWPLTFGGGTKMEIK
notes: VH and VL only
[1]
  Kd: 6.2 nM
[2]
  Kd: 11 nM

B13: mAb 229 (antibody, V domains shown)
VH: QEQLVESGGGVVQPGRSLRLSCAASGFTFSSYGMHWVRQAPGKGLEWVAIIYYNGKKKDYADSVKGRFTISRDNSKNTLYLQMNSLRAEDTAVYYCARGLGYNWFDPWGQGTLVTVSS
VL: EIVLTQSPDFQSVTPKEKVTITCRASQSIGSSLHWYQQKPDQSPKLLIKYASQSFSGVPSRFSGSGSGTDFTLTINSLEAEDAATYYCHQSSSLPYTFGQGTKLEIK
notes: VH and VL only
[1]
  Kd: 47 nM
[2]
  Kd: 22 nM

B14: mAb 237 (antibody, V domains shown)
VH: EVQLLESGGDLVQPGGSLRLTCAASGFTFRSYAMNWVRQAPGKGLEWVSTISSRGDTTNYADSVKGRFTISRDTSKNTLYLQMDNLRADDTAVYYCSKMFSYYYYYMDVWGKGTTVTVSS
VL: SYELTQPLSVSVALGQTARITCGGNNIGSKDVHWYQQKPGQAPVLVIYRDSNRPSGIPERFSGSNSGNTATLTISRAQAGDEADYYCQVWDSRTAVFGGGTQLTAL
notes: VH and VL only
[1]
  Kd: 5.6 nM
[2]
  Kd: 25 nM

B15: mAb 238 (antibody, V domains shown)
VH: EVQLLESGGDLVQPGGSLRLTCAASGFTFRSYAMNWVRQAPGKGLEWVSTISSRGDTTNYADSVKGRFTISRDTSKNTLYLQMDNLRADDTAVYYCSKMFSYYYYYMDVWGKGTTVTVSS
VL: SYELTQPLSVSVALGQTARITCGGNNIGSKDVHWYQQKPGQAPVLVIYRDSNRPSGIPERFSGSNSGNTATLTISRAQAGDEADYYCQVWDSSTAVFGGGTQLTAL
notes: VH and VL only
[1]
  Kd: 17 nM
[2]
  Kd: 59 nM

B16: mAb 68 (antibody, V domains shown)
VH: EVQLVDSGGGLVQPGGSLRLSCSGSGFTFSSYWMSWVRQAPGKGLEWVANIKQDGSQKYYVDSVKGRFTISRDNVKNSLYLQMNSLRVEDTAVYYCARDESSSWYWYFDLWGRGTLVTVSS
VL: DIQMTQSPSTLSASVGDRVTLTCRASQNIVKWLAWYQQKPGKAPKLLIYKASSLESGVPSWFSGSGSGTEFTLTINSLQPDDFATYYCQQYYTYSRTFGQGTKVEIK
notes: VH and VL only
[1]
  Kd: 99.9 nM
[2]
  Kd: 46.7 nM

B17: mAb 251 (antibody, V domains shown)
VH: EVQILESGGGLVQPGGSLRLSCVASGFTFRSYVMSWVRRAPGRGLEWVSGISASGGNTYYADSVKGRFTISRDNSKNTLFLQMNGLRAEDTAVYYCAKLFSYYYYFMDVWGKGTTVTVSS
VL: SYELTQPLSVSVALGQTARITCGGNNIGSKDVHWYQQKPGQAPVLVIYRDSNRPSGIPERFSGSNSGNTATLTISGAQAGDEADYYCQVWDRRTAVFGGGTQLTAL
notes: VH and VL only
[1]
  Kd: 8.1 nM
[2]
  Kd: 24 nM

B18: mAb 252 (antibody, V domains shown)
VH: EVQILESGGGLVQPGGSLRLSCVASGFTFRSYVMSWVRRAPGRGLEWVSGISTSGGNTYYADSVKGRFTISRDNSKNTLFLQMNGLRAEDTAVYYCAKLFSYYYYFMDVWGKGTTVTVSS
VL: SYELTQPLSVSVALGQTARITCGGNNIGSKDVHWYQQKPGQAPVLVIYRDSNRPSGIPERFSGSNSGNTATLTISGAQAGDEADYYCQVWDRRTAVFGGGTQLTAL
notes: VH and VL only
[1]
  Kd: 13 nM
[2]
  Kd: 30 nM

B19: mAb 264 (antibody, V domains shown)
VH: EVQLLESGGGLVQPGGSLRLSCVASGFTFRSSSMTWVRQAPGKGLEWVSGIRGSGGRTYDAESVKGRFTISRDNSKNTLYLQMNSLRAEDTAEYYCAKLYDYYNDYMDVWGKGTTVTVSS
VL: SYELTQPLSVSVALGQTARITCGGNNIGSKNVHWYQQKPGQAPVLVIYRDSNRPSGIPERFSGSNSGNTATLTISRAQAGDEADYYCQVWDSSTAVFGGGTQLTAL
notes: VH and VL only
[1]
  Kd: 7.4 nM
[2]
  Kd: 32 nM

B20: mAb 259 (antibody, V domains shown)
VH: EVLLLESGGGLVQPGGSLRLSCAASGFTFRSSSMTWVRQAPGKGLEWVSGIRGSGGRTYDAESVKGRFTISRDISKNTLYLQMNSVRAEDTAEYYCAKLYDYYNDYMDVWGKGTTVTVSS
VL: SYELTQPLSVSVALGQTARITCGGNNIGSKNVHWYQQKPGQAPVLVIYRDSNRPSGIPERFSGSNSGNTATLTISRAQAGDEADYYCQVWDSSTAVFGGGTQLTAL
notes: VH and VL only
[1]
  Kd: 13 nM
[2]
  Kd: 63 nM
